Measurements from US20030224397A1 (Genentech, published 2003).
Like-named read-outs stand apart in the source and are kept apart here.

Assays:
[1] = target: T1, short isoform of VEGF (8-109) (UniProt P15692 214-315); test: calculated from k-1 and k1, 0 M NaCl data
T1 construct: range 8-109; Immobilized by amine coupling for SPR; in solution for the fluorescence assay; also called vascular endothelial growth factor
T1 sequence (looked up): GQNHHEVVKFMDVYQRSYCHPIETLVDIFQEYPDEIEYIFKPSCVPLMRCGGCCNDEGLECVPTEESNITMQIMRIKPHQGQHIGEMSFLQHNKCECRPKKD

[2] = target: T1, short isoform of VEGF (8-109); test: fluorescence-based association assay at varied salt concentration
Protocol: (§1) In the experiments described here, the fluorescence emission intensity (λexcitation=295 nm; λₑₘᵢₛₛᵢₒₙ=340 nm, 16 nm bandpass) was measured using an 8000-series SLM-Aminco spectrophotometer (THERMOSPECTRONIC®) as VEGF was added to a stirred cuvette containing approximately 10 nM Fab in 25 mM Tris, pH 7.2, held at 37° C.

[3] = target: T1, short isoform of VEGF (8-109); test: SPR (BIAcore), VEGF immobilized, 25 mM Tris, 150 mM NaCl, 25 C
[4] = target: T1, short isoform of VEGF (8-109); test: SPR (BIAcore), VEGF immobilized, 25 mM Tris pH 7.2, 0 M NaCl, 37 C
Protocol: (§2) Dissociation rates were measured by surface plasmon resonance on a BIACORE-2000® instrument (BIAcore, Inc.) as described previously (Muller et al. Structure 6(9): 1153-67 (1998)). VEGF was immobilized by amine coupling to a B1 chip at approximately 10 resonance-response units. Fab binding was measured at 1 μM, 500 nM, 250 nM, 125 nM, 62.5 nM, and 31.3 nM. Dissociation was calculated assuming a one-to-one binding model. All experiments were performed at 37° C. in phosphate buffered saline solution, pH 7.2, containing 0.05% Tween-20, 0.01% NaN3 and at a flow rate of 20 μL min⁻¹.
(§3) Residues are numbered according the Kabat system (Kabat et al. Sequences of Proteins of Immunological Interest, 5th Edition., National Institute of Health, Bethesda, Md. (1991)). k₁ determined by the fluorescence-based assay (±standard deviation of three experiments). k₋₁ determined by surface plasmon resonance (±standard deviation of 12 experiments). k₁ and k₋₁ (0 M NaCl) experiments were performed in 25 mM Tris, pH 7.2, at 37° C. k₋₁ (0.15 M NaCl) experiments performed in 25 mM Tris, 150 mM NaCl, at 25° C.

[5] = target: T1, short isoform of VEGF (8-109); test: fluorescence-based association assay in solution, 25 mM Tris pH 7.2, 37 C
Protocol: as §1

[6] = target: T1, short isoform of VEGF (8-109); test: as above; remark: listed apart in the source
Protocol: as §1, §3

[7] = target: T1, short isoform of VEGF (8-109); test: as above; remark: listed apart in the source
Protocol: as §1
as §3, with “three experiments, wild-type only).” for “three experiments).”

[8] = target: T1, short isoform of VEGF (8-109); test: calculated from k-1 and k1, 0 M NaCl data; remark: listed apart in the source
[9] = target: T1, short isoform of VEGF (8-109); test: SPR (BIAcore), VEGF immobilized, 25 mM Tris, 150 mM NaCl, 25 C; remark: listed apart in the source
[10] = target: T1, short isoform of VEGF (8-109); test: SPR (BIAcore), VEGF immobilized, 25 mM Tris pH 7.2, 0 M NaCl, 37 C; remark: listed apart in the source
Protocol: as §2
as §3, with “three experiments, wild-type only).” for “three experiments).”

| Binder | kon [6] [M⁻¹ s⁻¹] | kon [7] [M⁻¹ s⁻¹] | Kd [8] [pM] | koff [10] [s⁻¹] | also measured |
| --- | --- | --- | --- | --- | --- |
| 34-TKKT (VH-(T28D, S100aR)+VL-(S26T, Q27K, D28K, S30T)) (Fab, V domains shown, Fab of Y0101 with both altered chains) VH: EVQLVESGGGLVQPGGSLRLSCAASGYDFTNYGMNWVRQAPGKGLEWVGWINTYTGEPTYAADFKRRFTFSLDTSKSTAYLQMNSLRAEDTAVYYCAKYPHYYGRSHWYFDVWGQGTLVTVSS VL: DIQLTQSPSSLSASVGDRVTITCSATKKITNYLNWYQQKPGKAPKVLIYFTSSLHSGVPSRFSGSGSGTDFTLTISSLQPEDFATYYCQQYSTVPWTFGQGTKVEIKR | 3.3e+06 | – | – | – | Kd [1]: 80 pM; fold difference in association rate against Y0101 in 150 mM NaCl [2]: < 2 fold; koff [3]: 2e-05 s⁻¹; koff [4]: 0.00026 s⁻¹; fold higher association rate than Y0101 [5]: 6 fold |
| Fab Y0101 variant, light chain S26K, D28K, S30K (Fab, V domains shown, Fab of Y0101 with several light chain substitutions) VH: EVQLVESGGGLVQPGGSLRLSCAASGYTFTNYGMNWVRQAPGKGLEWVGWINTYTGEPTYAADFKRRFTFSLDTSKSTAYLQMNSLRAEDTAVYYCAKYPHYYGSSHWYFDVWGQGTLVTVSS VL: DIQLTQSPSSLSASVGDRVTITCSAKQKIKNYLNWYQQKPGKAPKVLIYFTSSLHSGVPSRFSGSGSGTDFTLTISSLQPEDFATYYCQQYSTVPWTFGQGTKVEIKR | 1.3e+06 | – | – | – | – |
| Fab Y0101 variant, heavy chain T28D, S100aR (Fab, V domains shown, Fab; also called altered heavy chain T28D-S100aR) VH: EVQLVESGGGLVQPGGSLRLSCAASGYDFTNYGMNWVRQAPGKGLEWVGWINTYTGEPTYAADFKRRFTFSLDTSKSTAYLQMNSLRAEDTAVYYCAKYPHYYGRSHWYFDVWGQGTLVTVSS VL: DIQLTQSPSSLSASVGDRVTITCSASQDISNYLNWYQQKPGKAPKVLIYFTSSLHSGVPSRFSGSGSGTDFTLTISSLQPEDFATYYCQQYSTVPWTFGQGTKVEIKR | 1.4e+06 | – | – | – | koff [3]: 0.00011 s⁻¹ |
| Fab Y0101 variant, heavy chain T28K (Fab, name in Kabat numbering, V domains shown, Fab of Y0101 with one heavy chain substitution) VH: EVQLVESGGGLVQPGGSLRLSCAASGYKFTNYGMNWVRQAPGKGLEWVGWINTYTGEPTYAADFKRRFTFSLDTSKSTAYLQMNSLRAEDTAVYYCAKYPHYYGSSHWYFDVWGQGTLVTVSS VL: DIQLTQSPSSLSASVGDRVTITCSASQDISNYLNWYQQKPGKAPKVLIYFTSSLHSGVPSRFSGSGSGTDFTLTISSLQPEDFATYYCQQYSTVPWTFGQGTKVEIKR | – | 360000 | – | – | – |
| Fab Y0101 variant, light chain L54K (Fab, V domains shown, Fab of Y0101 with one light chain substitution) VH: EVQLVESGGGLVQPGGSLRLSCAASGYTFTNYGMNWVRQAPGKGLEWVGWINTYTGEPTYAADFKRRFTFSLDTSKSTAYLQMNSLRAEDTAVYYCAKYPHYYGSSHWYFDVWGQGTLVTVSS VL: DIQLTQSPSSLSASVGDRVTITCSASQDISNYLNWYQQKPGKAPKVLIYFTSSKHSGVPSRFSGSGSGTDFTLTISSLQPEDFATYYCQQYSTVPWTFGQGTKVEIKR | – | 440000 | – | – | – |
| Fab Y0101 variant, heavy chain Y99R (Fab, name in Kabat numbering, V domains shown, Fab of Y0101 with one heavy chain substitution) VH: EVQLVESGGGLVQPGGSLRLSCAASGYTFTNYGMNWVRQAPGKGLEWVGWINTYTGEPTYAADFKRRFTFSLDTSKSTAYLQMNSLRAEDTAVYYCAKYPHYRGSSHWYFDVWGQGTLVTVSS VL: DIQLTQSPSSLSASVGDRVTITCSASQDISNYLNWYQQKPGKAPKVLIYFTSSLHSGVPSRFSGSGSGTDFTLTISSLQPEDFATYYCQQYSTVPWTFGQGTKVEIKR | – | 600000 | 200 | 0.00014 | koff [9]: 0.00016 s⁻¹ |
| Fab Y0101 variant, light chain S52K, S53K, L54T (Fab, V domains shown, Fab of Y0101 with several light chain substitutions) VH: EVQLVESGGGLVQPGGSLRLSCAASGYTFTNYGMNWVRQAPGKGLEWVGWINTYTGEPTYAADFKRRFTFSLDTSKSTAYLQMNSLRAEDTAVYYCAKYPHYYGSSHWYFDVWGQGTLVTVSS VL: DIQLTQSPSSLSASVGDRVTITCSASQDISNYLNWYQQKPGKAPKVLIYFTKKTHSGVPSRFSGSGSGTDFTLTISSLQPEDFATYYCQQYSTVPWTFGQGTKVEIKR | 1.3e+06 | – | – | – | – |
| Fab Y0101 variant, light chain S26K, Q27K, D28N, S30T (Fab, V domains shown, Fab of Y0101 with several light chain substitutions) VH: EVQLVESGGGLVQPGGSLRLSCAASGYTFTNYGMNWVRQAPGKGLEWVGWINTYTGEPTYAADFKRRFTFSLDTSKSTAYLQMNSLRAEDTAVYYCAKYPHYYGSSHWYFDVWGQGTLVTVSS VL: DIQLTQSPSSLSASVGDRVTITCSAKKNITNYLNWYQQKPGKAPKVLIYFTSSLHSGVPSRFSGSGSGTDFTLTISSLQPEDFATYYCQQYSTVPWTFGQGTKVEIKR | 610000 | – | – | – | – |
| Fab Y0101 variant, heavy chain E56K (Fab, name in Kabat numbering, V domains shown, Fab of Y0101 with one heavy chain substitution) VH: EVQLVESGGGLVQPGGSLRLSCAASGYTFTNYGMNWVRQAPGKGLEWVGWINTYTGKPTYAADFKRRFTFSLDTSKSTAYLQMNSLRAEDTAVYYCAKYPHYYGSSHWYFDVWGQGTLVTVSS VL: DIQLTQSPSSLSASVGDRVTITCSASQDISNYLNWYQQKPGKAPKVLIYFTSSLHSGVPSRFSGSGSGTDFTLTISSLQPEDFATYYCQQYSTVPWTFGQGTKVEIKR | – | 480000 | 900 | 0.00044 | – |
| Fab Y0101 variant, heavy chain Y99K (Fab, name in Kabat numbering, V domains shown, Fab of Y0101 with one heavy chain substitution) VH: EVQLVESGGGLVQPGGSLRLSCAASGYTFTNYGMNWVRQAPGKGLEWVGWINTYTGEPTYAADFKRRFTFSLDTSKSTAYLQMNSLRAEDTAVYYCAKYPHYKGSSHWYFDVWGQGTLVTVSS VL: DIQLTQSPSSLSASVGDRVTITCSASQDISNYLNWYQQKPGKAPKVLIYFTSSLHSGVPSRFSGSGSGTDFTLTISSLQPEDFATYYCQQYSTVPWTFGQGTKVEIKR | – | 380000 | 400 | 0.00015 | koff [9]: 0.00014 s⁻¹ |
| Fab Y0101 variant, light chain Y32R (Fab, V domains shown, Fab of Y0101 with one light chain substitution) VH: EVQLVESGGGLVQPGGSLRLSCAASGYTFTNYGMNWVRQAPGKGLEWVGWINTYTGEPTYAADFKRRFTFSLDTSKSTAYLQMNSLRAEDTAVYYCAKYPHYYGSSHWYFDVWGQGTLVTVSS VL: DIQLTQSPSSLSASVGDRVTITCSASQDISNRLNWYQQKPGKAPKVLIYFTSSLHSGVPSRFSGSGSGTDFTLTISSLQPEDFATYYCQQYSTVPWTFGQGTKVEIKR | – | 710000 | – | – | – |
| Fab Y0101 variant, heavy chain S100aR (Fab, name in Kabat numbering, V domains shown, Fab of Y0101 with one heavy chain substitution) VH: EVQLVESGGGLVQPGGSLRLSCAASGYTFTNYGMNWVRQAPGKGLEWVGWINTYTGEPTYAADFKRRFTFSLDTSKSTAYLQMNSLRAEDTAVYYCAKYPHYYGRSHWYFDVWGQGTLVTVSS VL: DIQLTQSPSSLSASVGDRVTITCSASQDISNYLNWYQQKPGKAPKVLIYFTSSLHSGVPSRFSGSGSGTDFTLTISSLQPEDFATYYCQQYSTVPWTFGQGTKVEIKR | – | 870000 | 300 | 0.00024 | koff [9]: 7e-05 s⁻¹ |
